What is called EC50 is the concentration giving half of the maximal effect. A low value points to an effect from little substance.

Here are results for 1 molecule from patent US20050123549A1 (IMMUNOGEN, published 2005).

For test [1], the target named is T1, Muc1 mucin carrying the CA6 sialoglycotope (human, UniProt P15941 24-1255, sialylated O-linked carbohydrate carrying the CA6 epitope; positions not stated).
T1 construct: whole, on cells; Target of DS6 on CA6-positive human cell lines (flow cytometry) and in their lysates (dot blots, immunoprecipitation); also called CA6 antigen; DS6 antigen
Nature of the test: flow cytometry on WISH cells, apparent Kd. Background: A flow cytometer gives signals particle by particle.

In test [2] the target is T1, Muc1 mucin carrying the CA6 …. As to the kind of experiment: flow cytometry on T-47D cells, FITC anti-mouse IgG. On the procedure:
The fluorescence of cell lines incubated with the DS6 primary antibody and FITC conjugated anti-mouse IgG(H+L) secondary antibodies was measured by flow cytometry.
(§1) Cells ([…]) were incubated, on ice for 3-4 h, with serially diluted concentrations of the DS6 antibody prepared in FACS buffer (2% goat serum, RPMI) into 96-well plates. The cells were spun down in a table top centrifuge at 1500 rpm for 5 min at 4° C. After removing the media, the wells were then refilled with 150 μl of FACS buffer. The wash step was then repeated. FITC-labeled goat anti-mouse IgG (Jackson Immunoresearch) was diluted 1:100 to FACS buffer and incubated with the cells for 1 h on ice. The plate was covered in foil to prevent photobleaching of the signal. After two washes, the cells were fixed with 1% formaldehyde and analyzed on a flow cytometer.

Test [3] shares this target. Nature of the test: flow cytometry on HPAF-II cells, apparent Kd. How it is done:
(§2) Human cell lines were obtained from the American Type Culture Collection (ATCC) with the exception of OVCAR5 (Kearse et al., Int. J. Cancer 88(6):866-872 (2000)), OVCAR8 and IGROV1 cells (M. Seiden, Massachusetts General Hospital). All cells were grown in RPMI 1640 supplemented with 4 mM L-glutamine, 50 U/ml penicillin, 50 μg/ml streptomycin (Cambrex Bio Science, Rockland, Me.) and 10% v/v fetal bovine serum (Atlas Biologicals, Fort Collins, Colo.), referred hereafter as culture media. Cells were maintained in a 37° C., 5% CO₂ humidified incubator.
as §1

Test [4] shares this target. As to the kind of experiment: flow cytometry on MCF7 cells, apparent Kd.
Test [5] shares this target. Nature of the test: flow cytometry on T-47D cells, apparent Kd. On the procedure: as §1
For test [6] the target is unchanged. Nature of the test: flow cytometry on MCF-7 cells, apparent Kd. On the procedure: as §2, §1
The target is the same in test [7]. Nature of the test: flow cytometry on BxPC-3 cells, apparent Kd. On the procedure: as §2, §1
For test [8] the target is unchanged. Nature of the test: flow cytometry on Hs766T cells, apparent Kd. On the procedure:
as §2, §1

Test [9] shares this target. Nature of the test: flow cytometry on KB cells, apparent Kd.
The target is the same in test [10]. Nature of the test: flow cytometry on ZR-75-1 cells, apparent Kd.
The target is the same in test [11]. As to the kind of experiment: flow cytometry on BT-549 cells, apparent Kd. How it is done: as §2, §1
The target is the same in test [12]. As to the kind of experiment: flow cytometry on KB cells, apparent Kd. This is another data set of the same source.
The target is the same in test [13]. As to the kind of experiment: flow cytometry on WISH cells, direct binding.
For test [14] the target is unchanged. As to the kind of experiment: competition flow cytometry on WISH cells; competitor 2 nM biotin-muDS6, streptavidin-DTAF. On the procedure: To confirm that the huDS6 versions retains the affinity of muDS6, competitive binding experiments were conducted. […] In some cases, the experimentally measured apparent Kd can vary simply because of the secondary reagent used to indirectly detect binding.

The target is the same in test [15]. As to the kind of experiment: flow cytometry on KB cells, apparent Kd. The source holds these as a separate data set.
Test [16] shares this target. Nature of the test: flow cytometry on MDA-MB-157 cells, apparent Kd. On the procedure: as §2, §1
Test [17] has the same target. As to the kind of experiment: flow cytometry on HeLa cells, apparent Kd.
Test [18] has the same target. As to the kind of experiment: flow cytometry on BT-20 cells, apparent Kd.
Test [19] has the same target. As to the kind of experiment: flow cytometry on Caov-3 cells, apparent Kd.
For test [20] the target is unchanged. Nature of the test: flow cytometry on PC-3 cells, apparent Kd. On the procedure:
as §2, §1

B1: murine DS6 anti-CA6 monoclonal antibody (antibody, IgG1, V domains shown)
VH: QAYLQQSGAELVRSGASVKMSCKASGYTFTSYNMHWVKQTPGQGLEWIGYIYPGNGATNYNQKFKGKATLTADPSSSTAYMQISSLTSEDSAVYFCARGDSVPFAYWGQGTLVTVSA
VL: QIVLTQSPAIMSASPGEKVTITCSAHSSVSFMHWFQQKPGTSPKLWIYSTSSLASGVPARFGGSGSGTSYSLTISRMEAEDAATYYCQQRSSFPLTFGAGTKLELKR
notes: Whole murine monoclonal IgG from the DS6 hybridoma (ATCC PTA-4449); the 3' heavy chain cloning primer was BamIgG1 and the light chain primer was kappa; also called DS6 antibody; muDS6
Turning to B1, the Kd was 2.38 nM in [1]; 2.59 nM in test [2]; 2.81 nM in test [3]; 2.89 nM in test [4]; 3.42 nM in [5]; 2.89 nM in test [6]. The Kd was found to be 5.26 nM in [7]; 2.32 nM in test [8]; 0.111 nM in test [9]; 4.3 nM in test [10]; 1.05 nM in test [11]; 1.11 nM in [12]. The Kd in [13] was determined as 1.93 nM; in [15] it was 1.11 nM; in [16], 0.197 nM; in test [17] it was 0.694 nM; in test [18] it was 0.914 nM; in [19], 5.48 nM. The Kd in test [20] was 0.136 nM. The same molecule had an EC50 in test [14] of 12.2 nM.
